Where a chain is given by its changes, count along the chain named. Like-named read-outs stand apart in the source and are kept apart here.
B1: 2F5 variant e4W (antibody, V domains shown)
VH: RITLKESGPPLVKPTQTLTLTCSFSGFSLSDFGVGVGWIRQPPGKALEWLAIIYSDDDKRYSPSLNTRLTITKDTSKNQVVLVMTRVSPVDTATYFCAHRRGPTTGGLFGWGGPIARGPVNAMDVWGQGITVTISS
VL: ALQLTQSPSSLSASVGDRITITCRASQGVTSALAWYRQKPGSPPQLLIYDASSLESGVPSRFSGSGSGTEFTLTISTLRPEDFATYYCQQLHFYPHTFGGGTRVDVR
B2: 2F5 variant e2W (antibody, V domains shown)
VH: RITLKESGPPLVKPTQTLTLTCSFSGFSLSDFGVGVGWIRQPPGKALEWLAIIYSDDDKRYSPSLNTRLTITKDTSKNQVVLVMTRVSPVDTATYFCAHRRGPTTGLFGWGPIARGPVNAMDVWGQGITVTISS
VL: B1 VL
B3: 2F5 variant r4W3 (antibody, V domains shown)
VH: RITLKESGPPLVKPTQTLTLTCSFSGFSLSDFGVGVGWIRQPPGKALEWLAIIYSDDDKRYSPSLNTRLTITKDTSKNQVVLVMTRVSPVDTATYFCAHRRGPWFGWWRGPVNAMDVWGQGITVTISS
VL: B1 VL
B4: 2F5 variant r4W2b (antibody, V domains shown)
VH: B3 VH with W104L, G106W, W108A
VL: B1 VL
B5: 2F5 variant r4W2c (antibody, V domains shown)
VH: B3 VH with W108A
VL: B1 VL
B6: 2F5 variant r4WY (antibody, V domains shown)
VH: B3 VH with W104L, W108Y
VL: B1 VL
B7: 2F5 variant r6W (antibody, V domains shown)
VH: RITLKESGPPLVKPTQTLTLTCSFSGFSLSDFGVGVGWIRQPPGKALEWLAIIYSDDDKRYSPSLNTRLTITKDTSKNQVVLVMTRVSPVDTATYFCAHRRGLFGWRGPVNAMDVWGQGITVTISS
VL: B1 VL
B8: 2F5 variant r4W2a (antibody, V domains shown)
VH: B3 VH with W104L
VL: B1 VL
B9: 2F5 variant r4WY2 (antibody, V domains shown)
VH: B3 VH with W104Y, W108Y
VL: B1 VL
B10: 2F5 variant r2W (antibody, V domains shown)
VH: RITLKESGPPLVKPTQTLTLTCSFSGFSLSDFGVGVGWIRQPPGKALEWLAIIYSDDDKRYSPSLNTRLTITKDTSKNQVVLVMTRVSPVDTATYFCAHRRGPTLFGWIARGPVNAMDVWGQGITVTISS
VL: B1 VL
B11: 2F5 variant r4W (antibody, V domains shown)
VH: B3 VH with W104L, W108A
VL: B1 VL

Legend:
wt MPER peptide [1] = target: wt MPER peptide (HIV-1)
wt MPER peptide [2] = target: wt MPER peptide (HIV-1); remark: listed apart in the source
wt MPER peptide [3] = target: wt MPER peptide (HIV-1); remark: listed apart in the source
wt MPER peptide [4] = target: wt MPER peptide (HIV-1); remark: listed apart in the source

Row | Binder | koff (wt MPER peptide [1]) [s⁻¹] | Kd (wt MPER peptide [2]) [nM] | Kd (wt MPER peptide [3]) [nM] | koff (wt MPER peptide [4]) [s⁻¹]
1 | B1 | 0.0105 | 145 |  | 
2 | B2 | 0.0105 | 131 |  | 
3 | B3 |  |  | 2.2 | 0.00174
4 | B4 | 0.0034 | 3.94 |  | 
5 | B5 | 0.00112 | 5.12 |  | 
6 | B6 | 0.00055 | 2.77 |  | 
7 | B7 | 0.0224 | 353 |  | 
8 | B8 | 0.00106 | 2.57 |  | 
9 | B9 | 0.00193 | 5.49 |  | 
10 | B10 | 0.00435 | 29.5 |  | 
11 | B11 | 0.00681 | 79.6 |  | 
